This data set concerns the molecule itself. In words: fluorescence polarisation.

B1: Wild-type FokI restriction endonuclease (enzyme)
chain: KIRTFGWVQNPGKFENLKRVVQVFDRNSKVHNEVKNIKIPTLVKESKIQKELVAIMNQHDLIYTYKELVGTGTSIRSEAPCDAIIQATIADQGNKKGYIDNWSSDGFLRWAHALGFIEYINKSDSFVITDVGLAYSKSADGSAIEKEILIEAISSYPPAIRILTLLEDGQHLTKFDLGKNLGFSGESGFTSLPEGILLDTLANAMPKDKGEIRNNWEGSSDKYARMIGGWLDKLGLVKQGKKEFIIPTLGKPDNKEFISHAFKITGEGLKVLRRAKGSTKFTRVPKRVYWEMLATNLTDKEYVRTRRALILEILIKAGSLKIEQIQDNLKKLGFDEVIETIENDIKGLINTGIFIEIKGRFYQLKDHILQFVIPNRGVTKQLVKSELEEKKSELRHKLKYVPHEYIELIEIARNSTQDRILEMKVMEFFMKVYGYRGKHLGGSRKPDGAIYTVGSPIDYGVIVDTKAYSGGYNLPIGQADEMQRYVEENQTRNKHINPNEWWKVYPSSVTEFKFLFVSGHFKGNYKAQLTRLNHITNCNGAVLSVEELLIGGEMIKAGTLTLEEVRRKFNNGEINF
On to B1, for which the binding result is on record as “binds”.

For the origin of these results see publication PMC3273807 (Nucleic Acids Research, 2011).
